Laboratory results reported in the supplement of paper PMC9112550, “Optimization of the antimicrobial peptide Bac7 by deep mutational scanning” (BMC Biology, 2022).

test system: Escherichia coli TOP10; experiment: shrunken log2 fold change of peptide-encoding DNA abundance (4.5 h post-induction vs induction); higher = less antimicrobial activity (less host growth inhibition); settings: time post-induction: 4.5 h; library: site-saturation at positions 5, 18, 19, 20
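Further: peptides expressed intracellularly from a pBAD plasmid library in pooled LB shake-flask culture, induced with 0.3% L-arabinose, DNA abundance read by NGS, three biological replicates, DESeq2 with apeglm shrinkage.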

Row | Sequence | shrunken log2 fold change
1 | RRIRNRPPRLPRPRPRPYKWPRP | -0.233
2 | RRIRGRPPRLPRPRPRPVLSPRP | 0.238
3 | RRIRQRPPRLPRPRPRPWYAPRP | -0.134
4 | RRIRDRPPRLPRPRPRPSWAPRP | -0.102
5 | RRIRTRPPRLPRPRPRPIFSPRP | -0.393
6 | RRIRHRPPRLPRPRPRPNMTPRP | 0.0729
7 | RRIRNRPPRLPRPRPRPHPLPRP | -0.122
8 | RRIRCRPPRLPRPRPRPLHLPRP | -0.302
9 | RRIRYRPPRLPRPRPRPCVGPRP | -1.87
10 | RRIRNRPPRLPRPRPRPTAEPRP | -0.0644
11 | RRIRARPPRLPRPRPRPVGGPRP | 0.571
12 | RRIRHRPPRLPRPRPRPNVYPRP | -0.149
13 | RRIRRRPPRLPRPRPRPERTPRP | 0.232
14 | RRIRMRPPRLPRPRPRPKWYPRP | -0.171
15 | RRIRNRPPRLPRPRPRPTNCPRP | 0.143
16 | RRIRHRPPRLPRPRPRPYMNPRP | -1.04
17 | RRIRPRPPRLPRPRPRPMAFPRP | 0.0207
18 | RRIRYRPPRLPRPRPRPFLLPRP | -1.19
19 | RRIRIRPPRLPRPRPRPMTYPRP | -0.0592
20 | RRIRRRPPRLPRPRPRPFNSPRP | 0.0474
21 | RRIRWRPPRLPRPRPRPHIFPRP | -0.494
22 | RRIRLRPPRLPRPRPRPVVFPRP | -0.136
23 | RRIRVRPPRLPRPRPRPDEDPRP | 0.185
24 | RRIRGRPPRLPRPRPRPMQDPRP | 0.108
25 | RRIRSRPPRLPRPRPRPGHPPRP | 0.0456

Row | Sequence | shrunken log2 fold change
26 | RRIRIRPPRLPRPRPRPQTMPRP | -0.0804
27 | RRIRHRPPRLPRPRPRPARIPRP | 0.0499
28 | RRIRCRPPRLPRPRPRPKRMPRP | 0.118
29 | RRIRFRPPRLPRPRPRPVQNPRP | 0.0293
30 | RRIRLRPPRLPRPRPRPWIQPRP | -0.355
31 | RRIRNRPPRLPRPRPRPDVMPRP | -0.275
32 | RRIRMRPPRLPRPRPRPMRRPRP | 0.487
33 | RRIRCRPPRLPRPRPRPRNWPRP | 0.366
34 | RRIRPRPPRLPRPRPRPHVHPRP | -0.254
35 | RRIRVRPPRLPRPRPRPLHGPRP | 0.0379
36 | RRIRLRPPRLPRPRPRPISYPRP | -0.334
37 | RRIRRRPPRLPRPRPRPNMVPRP | -0.0449
38 | RRIRCRPPRLPRPRPRPPIAPRP | 1.41
39 | RRIRNRPPRLPRPRPRPLMNPRP | -0.853
40 | RRIRYRPPRLPRPRPRPQSQPRP | -0.133
41 | RRIRWRPPRLPRPRPRPGREPRP | 0.412
42 | RRIRCRPPRLPRPRPRPYRIPRP | -0.263
43 | RRIRSRPPRLPRPRPRPCEHPRP | 0.135
44 | RRIRFRPPRLPRPRPRPFRFPRP | -0.129
45 | RRIRDRPPRLPRPRPRPVDVPRP | -0.185
46 | RRIRLRPPRLPRPRPRPGKAPRP | 0.0651
47 | RRIRKRPPRLPRPRPRPTSFPRP | -0.044
48 | RRIRCRPPRLPRPRPRPAEVPRP | -0.106
49 | RRIRDRPPRLPRPRPRPEREPRP | -0.0248
50 | RRIRKRPPRLPRPRPRPLWNPRP | 0.109

Row | Sequence | shrunken log2 fold change
51 | RRIRHRPPRLPRPRPRPPRMPRP | 0.284
52 | RRIRSRPPRLPRPRPRPTLVPRP | 0.366
53 | RRIRLRPPRLPRPRPRPQRTPRP | 0.43
54 | RRIRFRPPRLPRPRPRPANRPRP | -0.0406
55 | RRIRSRPPRLPRPRPRPYIAPRP | -0.917
56 | RRIRDRPPRLPRPRPRPQLTPRP | 0.0489
57 | RRIRQRPPRLPRPRPRPPFVPRP | 0.0462
58 | RRIRARPPRLPRPRPRPKELPRP | 0.404
59 | RRIRYRPPRLPRPRPRPDPHPRP | -0.356
60 | RRIRTRPPRLPRPRPRPFSRPRP | 0.0136
61 | RRIRARPPRLPRPRPRPKTRPRP | 0.689
62 | RRIRFRPPRLPRPRPRPDTHPRP | -0.618
63 | RRIRFRPPRLPRPRPRPYFCPRP | -1.05
64 | RRIRMRPPRLPRPRPRPSQPPRP | 0.22
65 | RRIRQRPPRLPRPRPRPGCWPRP | 0.548
66 | RRIRLRPPRLPRPRPRPCAEPRP | 0.395
67 | RRIRVRPPRLPRPRPRPSPIPRP | -0.324
68 | RRIRERPPRLPRPRPRPEPNPRP | 0.366
69 | RRIRDRPPRLPRPRPRPTFYPRP | -0.286
70 | RRIRKRPPRLPRPRPRPPMPPRP | 0.525
71 | RRIRIRPPRLPRPRPRPVWMPRP | 0.11
72 | RRIRFRPPRLPRPRPRPHAKPRP | 0.229
73 | RRIRSRPPRLPRPRPRPQWLPRP | -0.32
74 | RRIRVRPPRLPRPRPRPHMVPRP | -0.53
75 | RRIRCRPPRLPRPRPRPQVVPRP | -0.266

Row | Sequence | shrunken log2 fold change
76 | RRIRFRPPRLPRPRPRPHMSPRP | 0.0344
77 | RRIRCRPPRLPRPRPRPGSTPRP | -0.474
78 | RRIRLRPPRLPRPRPRPQCPPRP | -0.266
79 | RRIRPRPPRLPRPRPRPPGGPRP | 0.968
80 | RRIRFRPPRLPRPRPRPMPNPRP | 0.0592
81 | RRIRHRPPRLPRPRPRPRHGPRP | -0.0477
82 | RRIRVRPPRLPRPRPRPDDLPRP | -0.0407
83 | RRIRERPPRLPRPRPRPKPIPRP | -0.128
84 | RRIRVRPPRLPRPRPRPAENPRP | 0.15
85 | RRIRRRPPRLPRPRPRPYDPPRP | 0.0185
86 | RRIRIRPPRLPRPRPRPNHSPRP | -0.639
87 | RRIRDRPPRLPRPRPRPGAGPRP | 0.914
88 | RRIRRRPPRLPRPRPRPHRNPRP | -0.317
89 | RRIRQRPPRLPRPRPRPEHQPRP | -0.0955
90 | RRIRCRPPRLPRPRPRPMVNPRP | -0.0109
91 | RRIRMRPPRLPRPRPRPGDAPRP | 0.853
92 | RRIRTRPPRLPRPRPRPDMHPRP | -0.249
93 | RRIRHRPPRLPRPRPRPKRLPRP | 0.0708
94 | RRIRLRPPRLPRPRPRPSTIPRP | -0.246
95 | RRIRDRPPRLPRPRPRPSPTPRP | -0.0251
96 | RRIRSRPPRLPRPRPRPMMLPRP | 0.15
97 | RRIRKRPPRLPRPRPRPIWNPRP | -0.0253
98 | RRIRARPPRLPRPRPRPFPRPRP | 0.0695
99 | RRIRWRPPRLPRPRPRPHFEPRP | -0.165
100 | RRIRRRPPRLPRPRPRPVPDPRP | 0.173

Row | Sequence | shrunken log2 fold change
101 | RRIRTRPPRLPRPRPRPWMEPRP | -0.326
102 | RRIRTRPPRLPRPRPRPKIEPRP | -0.00653
103 | RRIRQRPPRLPRPRPRPIDFPRP | -0.0381
104 | RRIRDRPPRLPRPRPRPFHVPRP | -0.0179
105 | RRIRRRPPRLPRPRPRPYRFPRP | -0.15
106 | RRIRGRPPRLPRPRPRPGYIPRP | -0.0887
107 | RRIRLRPPRLPRPRPRPMGAPRP | 0.316
108 | RRIRPRPPRLPRPRPRPKFCPRP | 0.189
109 | RRIRQRPPRLPRPRPRPCTMPRP | -0.804
110 | RRIRIRPPRLPRPRPRPIGTPRP | -0.792
111 | RRIRQRPPRLPRPRPRPGSEPRP | 0.0985
112 | RRIRFRPPRLPRPRPRPWGTPRP | -0.131
113 | RRIRYRPPRLPRPRPRPAHEPRP | 0.241
114 | RRIRDRPPRLPRPRPRPGMRPRP | 1.02
115 | RRIRQRPPRLPRPRPRPAKHPRP | 0.204
116 | RRIRERPPRLPRPRPRPQNDPRP | -0.551
117 | RRIRGRPPRLPRPRPRPFVCPRP | 0.327
118 | RRIRGRPPRLPRPRPRPYIVPRP | 0.0237
119 | RRIRMRPPRLPRPRPRPHWPPRP | 1.1
120 | RRIRERPPRLPRPRPRPLELPRP | 0.086
121 | RRIRKRPPRLPRPRPRPCRAPRP | 0.57
122 | RRIRTRPPRLPRPRPRPMPPPRP | 0.0692
123 | RRIRKRPPRLPRPRPRPCVTPRP | 0.0632
124 | RRIRHRPPRLPRPRPRPYINPRP | -0.862
125 | RRIRVRPPRLPRPRPRPQILPRP | -0.451

Row | Sequence | shrunken log2 fold change
126 | RRIRTRPPRLPRPRPRPEINPRP | -0.106
127 | RRIRNRPPRLPRPRPRPFKPPRP | -0.239
128 | RRIRARPPRLPRPRPRPFVKPRP | 0.0302
129 | RRIRLRPPRLPRPRPRPMGMPRP | 0.0771
130 | RRIRERPPRLPRPRPRPCSLPRP | -0.264
131 | RRIRYRPPRLPRPRPRPMCGPRP | -0.17
132 | RRIRIRPPRLPRPRPRPTYTPRP | -0.405
133 | RRIRLRPPRLPRPRPRPFHSPRP | -0.177
134 | RRIRVRPPRLPRPRPRPYPVPRP | -0.419
135 | RRIRMRPPRLPRPRPRPAYYPRP | -0.3
136 | RRIRIRPPRLPRPRPRPKANPRP | -0.103
137 | RRIRLRPPRLPRPRPRPRMHPRP | 0.136
138 | RRIRSRPPRLPRPRPRPEDNPRP | 0.24
139 | RRIRVRPPRLPRPRPRPHNCPRP | -0.0364
140 | RRIRPRPPRLPRPRPRPSAFPRP | 0.191
141 | RRIRYRPPRLPRPRPRPIVIPRP | -0.0448
142 | RRIRNRPPRLPRPRPRPNAYPRP | -0.0738
143 | RRIRKRPPRLPRPRPRPFMIPRP | -0.326
144 | RRIRSRPPRLPRPRPRPPMKPRP | 0.194
145 | RRIRFRPPRLPRPRPRPEKHPRP | 0.176
146 | RRIRLRPPRLPRPRPRPTIPPRP | 0.0895
147 | RRIRGRPPRLPRPRPRPDPKPRP | 0.649
148 | RRIRVRPPRLPRPRPRPSLMPRP | -0.368
149 | RRIRKRPPRLPRPRPRPNRLPRP | 0.497
150 | RRIRARPPRLPRPRPRPTVTPRP | 0.707
